From article PMC3954457 (The Journal of biological chemistry, 2006)

What was measured:
[1] = target: X di-domain (XDD) of human E3 binding protein: lipoyl domain and subunit binding domain (human); assay: ITC
[2] = target: T1, human dihydrolipoamide dehydrogenase (E3) (human, UniProt P09622 36-509); assay: native gel or EMSA
T1 sequence: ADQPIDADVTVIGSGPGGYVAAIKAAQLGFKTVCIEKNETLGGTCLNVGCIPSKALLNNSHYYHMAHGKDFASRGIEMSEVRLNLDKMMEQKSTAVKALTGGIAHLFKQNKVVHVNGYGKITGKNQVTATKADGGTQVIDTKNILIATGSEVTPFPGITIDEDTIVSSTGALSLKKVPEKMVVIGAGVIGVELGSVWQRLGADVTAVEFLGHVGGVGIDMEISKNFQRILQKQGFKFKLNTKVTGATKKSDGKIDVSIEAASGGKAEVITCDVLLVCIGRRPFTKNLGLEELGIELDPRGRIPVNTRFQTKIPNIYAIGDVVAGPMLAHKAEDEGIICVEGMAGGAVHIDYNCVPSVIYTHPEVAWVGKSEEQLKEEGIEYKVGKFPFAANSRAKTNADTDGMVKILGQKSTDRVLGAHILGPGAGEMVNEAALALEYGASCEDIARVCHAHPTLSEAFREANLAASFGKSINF

In the case of “human dihydrolipoamide dehydrogenase (E3) (from UniProt P09622 36-509) (enzyme)”, the dH [1] is reported as -12.1 kcal/mol and the stoichiometry N [1] is reported as 0.5 E3:XDD.

B1: X subunit binding domain (XSBD) of human E3 binding protein (domain or fragment)
chain: QISIPVKKEHIPGTLRFRLSPAARNILEKHSLDASQGTATGPRGIFTKEDALKLVQLKQTGKITE
In the case of B1, the “stoichiometry N” value [2] is reported as 2 XSBD:E3.
